In article PMC6982183 one finds stoichiometry N data, which are given here for one substance.

The target in the assay is human Hsp60 wild type (human). In words: SEC; Superdex 200 Increase 10/300 GL, 50 mM Tris-HCl (pH 7.8 at 25 °C), 2 mM DTT, 2 mM EDTA, 0.5 mg sample, 0.75 mL/min; size from calibration with molecular weight standards; before and after agitation. A general note: In gel filtration, larger molecules generally elute earlier.

As for human Hsp60 wild type (natural protein), the stoichiometry N (as a rule, the number of molecules, sites or subunits per partner or assembly) was found to be 14.
